One assay addresses T1, B7-H4 (UniProt Q7Z7D3 25-258, limits assumed).
T1 sequence (looked up): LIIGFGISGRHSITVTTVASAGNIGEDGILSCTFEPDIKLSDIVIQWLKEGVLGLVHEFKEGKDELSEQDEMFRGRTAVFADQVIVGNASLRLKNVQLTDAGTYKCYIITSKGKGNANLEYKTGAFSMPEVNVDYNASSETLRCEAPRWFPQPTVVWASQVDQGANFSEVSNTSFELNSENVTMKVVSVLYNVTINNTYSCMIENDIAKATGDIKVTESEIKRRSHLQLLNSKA
Nature of the assay: indirect ELISA, B7-H4 coated at 1 ug/mL, absorbance at 450 nm. The method, then: [The procedure below names another target; the source lists this target under the same test.] (§1) The binding ability of 2D IgG prepared in Example 2 for recombinant B7-H3 protein was investigated by indirect ELISA. For indirect ELISA, recombinant human 4lg B7-H3, recombinant human 2lg B7-H3 and recombinant mouse B7-H3 were diluted respectively to 1 μg/mL in 50 μL of PBS and adsorbed overnight onto a 96-well immunoplate (Corning, USA) by storing at 4° C. After reaction with a buffer solution containing 3% bovine serum albumin at room temperature for 1 hour, followed by washing 3 times with a buffer solution containing 0.5% Tween 20, each well was treated with 50 μL of the antibodies diluted serially (0.0001, 0.0003, 0.001, 0.003, 0.01, 0.03, 0.1, 0.3, 1, 3 and 10 nM). For antigen-antibody binding, the mixture was reacted at room temperature for 2 hours, and then washed 3 times with a buffer solution containing 0.5% Tween 20. After treating each well with 50 μL of anti-human immunoglobulin Fc-HRP antibodies (Jackson Immunoresearch, USA) diluted to 1:3,000, reaction was conducted at room temperature for 1 hour. […] As a result of measuring absorbance at 450 nm using a spectrophotometer (Biotek, USA), it was confirmed that 2D IgG binds to B7-H3, and the binding ability was in the order of 4lg B7-H3, 2lg B7-H3 and mouse B7-H3 (FIG. 2a). […]
In general terms: In an ELISA, binding on a coated surface is turned into a signal by an enzyme label.

Assay [1] deals with B7-H3 on human cancer cells (human) (UniProt Q5ZPR3). Nature of the assay: flow cytometry on PC-3 prostate cancer cells; control (secondary antibody only) < 20%.
Assay [2] has the same target. Kind of assay: cell-based or functional assay.
The next assay concerns the target T2, B7-2 (UniProt P42081 24-247, limits assumed).
T2 sequence (looked up): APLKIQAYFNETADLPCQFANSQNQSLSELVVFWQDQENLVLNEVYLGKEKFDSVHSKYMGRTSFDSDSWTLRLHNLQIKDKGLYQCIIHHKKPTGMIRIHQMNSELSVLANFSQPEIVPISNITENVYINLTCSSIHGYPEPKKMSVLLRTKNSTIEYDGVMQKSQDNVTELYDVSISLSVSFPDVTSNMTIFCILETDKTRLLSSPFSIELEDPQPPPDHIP
Nature of the assay: indirect ELISA, B7-2 coated at 1 ug/mL, absorbance at 450 nm. The method, then:
[The procedure below names another target; the source lists this target under the same test.] as §1

Assay [3] has as its target B7-H3 on human cancer cells (human) (UniProt Q5ZPR3). Nature of the assay: flow cytometry on MDA-MB-231 breast cancer cells; control (secondary antibody only) < 5%. (In flow cytometry, cells or beads pass a laser one at a time.)
Assay [4] shares this target. Kind of assay: flow cytometry on HCT116 colorectal cancer cells; control (secondary antibody only) < 25%.
Assay [5] has the same target. Nature of the assay: flow cytometry on U251 brain tumor cells; control (secondary antibody only) < 10%.
The target of another assay is T3, B7-H2 (UniProt O75144 19-256, limits assumed).
T3 sequence (looked up): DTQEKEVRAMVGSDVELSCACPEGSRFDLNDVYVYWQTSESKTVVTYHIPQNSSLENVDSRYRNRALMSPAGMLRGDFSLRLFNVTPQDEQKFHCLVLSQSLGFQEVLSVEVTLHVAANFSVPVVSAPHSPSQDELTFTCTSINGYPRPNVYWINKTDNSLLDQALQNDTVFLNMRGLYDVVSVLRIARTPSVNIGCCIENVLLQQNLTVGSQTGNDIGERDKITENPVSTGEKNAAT
Kind of assay: indirect ELISA, B7-H2 coated at 1 ug/mL, absorbance at 450 nm. The method, then: [The procedure below names another target; the source lists this target under the same test.] as §1

The target of assay [6] is human 2Ig B7-H3 expressed on Raji cells (human) (UniProt Q5ZPR3). Kind of assay: flow cytometry on Raji cells expressing 2Ig B7-H3; the vector control Raji cells show < 2%.
human 2Ig B7-H3 expressed on Raji cells (human), sequence (Q5ZPR3 other isoform, or with tags, fused parts or gaps, form in doubt): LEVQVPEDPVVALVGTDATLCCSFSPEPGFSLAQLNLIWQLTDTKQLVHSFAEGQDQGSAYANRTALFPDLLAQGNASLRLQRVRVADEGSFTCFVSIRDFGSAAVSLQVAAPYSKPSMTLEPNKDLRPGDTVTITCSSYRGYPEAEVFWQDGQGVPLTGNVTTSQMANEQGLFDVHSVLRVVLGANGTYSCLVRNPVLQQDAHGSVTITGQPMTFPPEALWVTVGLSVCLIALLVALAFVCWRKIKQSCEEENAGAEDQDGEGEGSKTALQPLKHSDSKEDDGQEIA
The target of assay [7] is B7-H3 on human cancer cells (human) (UniProt Q5ZPR3). Kind of assay: flow cytometry on U87 brain tumor cells; control (secondary antibody only) < 10%.
A further assay deals with T4, B7-1 (UniProt P33681 35-242).
T4 sequence (looked up): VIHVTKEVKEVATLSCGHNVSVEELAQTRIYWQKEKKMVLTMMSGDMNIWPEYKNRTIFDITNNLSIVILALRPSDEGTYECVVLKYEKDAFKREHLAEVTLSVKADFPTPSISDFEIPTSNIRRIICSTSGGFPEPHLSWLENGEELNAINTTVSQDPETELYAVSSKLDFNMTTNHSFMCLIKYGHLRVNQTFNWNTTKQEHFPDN
Nature of the assay: indirect ELISA, B7-1 coated at 1 ug/mL, absorbance at 450 nm. The method, then:
[The procedure below names another target; the source lists this target under the same test.] as §1

Assay [8] has as its target B7-H3 on human cancer cells (human) (UniProt Q5ZPR3). Kind of assay: flow cytometry on A172 brain tumor cells; control (secondary antibody only) < 25%.

B1: G2D IgG (antibody, V domains shown)
VH: QVQLVESGGGLVQPGGSLRLSCSASGFDFSSYPMVWVRQAPGKGLEYVSSINSGGSWTGYGAAVKGRATISRDNSKNTLYLQMNSLRAEDTATYYCARAYGAATIDAWGQGTTVTVSS
VL: SYELTQPPSVSVSPGQTARITCSGGSIGYGWYQQKAPGQAPVTVIYYNDRRPSGIPERFSGSKSGTTNTLTISGVQAEDEADYYCGSADSSSTYTGIFGGGTKLTVL
notes: The back-substitutions (L46T, S66K, V71N in VL); also called humanized 2D; G2D antibody
As for B1, the binding result in the assay with B7-H4, with B7-2, with B7-H2 and with B7-1 was “no binding (tested: 10 nM)” each time. For the same molecule, the % of cells in the positive gate in assay [1], in assay [3], in assay [4], in [5], in [7] and in [8] was greater than 95% in each case. In assay [2], this molecule returned a T cell-mediated A549 cell-killing effect (GFP fluorescence of A549 cells after 48 h co-culture with activated PBMCs; negative control group = 100) of 69.3. The molecule also gave a T cell-mediated cancer cell-killing effect as compared to the negative control group in assay [2] of 30%. This molecule registered a % of cells in the positive gate (P3) in assay [6] greater than 40%.

(Values after patent US20260201038A1 (CELLABMED, published 2026).)
